Laboratory results reported in US20230220589A1.

Assays:
[1] = target: M44-modified D NTAA target peptides; experiment: encoding assay; P2 W
[2] = target: M44-modified F NTAA target peptides (M44-F-P2-peptide); experiment: encoding assay; P2 W
[3] = target: M44-modified E NTAA target peptides; experiment: encoding assay; P2 M
[4] = target: M44-modified M NTAA target peptides; experiment: encoding assay; P2 M
[5] = target: M44-modified F NTAA target peptides (M44-F-P2-peptide); experiment: encoding assay; P2 M
[6] = target: M44-modified T NTAA target peptides; experiment: encoding assay; P2 M
[7] = target: M44-modified P NTAA target peptides; experiment: encoding assay; P2 M
[8] = target: M44-modified Y NTAA target peptides (M44-Y-P2-peptide); experiment: encoding assay; P2 M
[9] = target: M44-modified V NTAA target peptides; experiment: encoding assay; P2 M
[10] = target: M44-modified L NTAA target peptides (M44-L-P2-peptide); experiment: encoding assay; P2 M
[11] = target: M44-modified N NTAA target peptides; experiment: encoding assay; P2 M
[12] = target: M44-modified I NTAA target peptides (M44-I-P2-peptide); experiment: encoding assay; P2 A
[13] = target: M44-modified M NTAA target peptides; experiment: encoding assay; P2 A
[14] = target: M44-modified F NTAA target peptides (M44-F-P2-peptide); experiment: encoding assay; P2 A
[15] = target: M44-modified W NTAA target peptides; experiment: encoding assay; P2 A
[16] = target: M44-modified Q NTAA target peptides; experiment: encoding assay; P2 A
[17] = target: M44-modified A NTAA target peptides (M44-A-P2-peptide); experiment: encoding assay; P2 A
[18] = target: M44-modified Y NTAA target peptides (M44-Y-P2-peptide); experiment: encoding assay; P2 A
[19] = target: M44-modified V NTAA target peptides; experiment: encoding assay; P2 A
[20] = target: M44-modified H NTAA target peptides; experiment: encoding assay; P2 A
[21] = target: M44-modified L NTAA target peptides (M44-L-P2-peptide); experiment: encoding assay; P2 A
[22] = target: M44-modified G NTAA target peptides (M44-G-P2-peptide); experiment: encoding assay; P2 A
[23] = target: M44-modified N NTAA target peptides; experiment: encoding assay; P2 A
[24] = target: M44-modified I NTAA target peptides (M44-I-P2-peptide); experiment: encoding assay; P2 D
[25] = target: M44-modified M NTAA target peptides; experiment: encoding assay; P2 D
[26] = target: M44-modified F NTAA target peptides (M44-F-P2-peptide); experiment: encoding assay; P2 D
[27] = target: M44-modified W NTAA target peptides; experiment: encoding assay; P2 D
[28] = target: M44-modified Q NTAA target peptides; experiment: encoding assay; P2 D
[29] = target: M44-modified A NTAA target peptides (M44-A-P2-peptide); experiment: encoding assay; P2 D
[30] = target: M44-modified Y NTAA target peptides (M44-Y-P2-peptide); experiment: encoding assay; P2 D
[31] = target: M44-modified L NTAA target peptides (M44-L-P2-peptide); experiment: encoding assay; P2 D
[32] = target: M44-modified G NTAA target peptides (M44-G-P2-peptide); experiment: encoding assay; P2 D
[33] = target: M44-modified N NTAA target peptides; experiment: encoding assay; P2 D
[34] = target: M44-modified E NTAA target peptides; experiment: encoding assay; P2 F
[35] = target: M44-modified I NTAA target peptides (M44-I-P2-peptide); experiment: encoding assay; P2 F
[36] = target: M44-modified D NTAA target peptides; experiment: encoding assay; P2 F
[37] = target: M44-modified M NTAA target peptides; experiment: encoding assay; P2 F
[38] = target: M44-modified F NTAA target peptides (M44-F-P2-peptide); experiment: encoding assay; P2 F
[39] = target: M44-modified W NTAA target peptides; experiment: encoding assay; P2 F
[40] = target: M44-modified T NTAA target peptides; experiment: encoding assay; P2 F
[41] = target: M44-modified P NTAA target peptides; experiment: encoding assay; P2 F
[42] = target: M44-modified Q NTAA target peptides; experiment: encoding assay; P2 F
[43] = target: M44-modified A NTAA target peptides (M44-A-P2-peptide); experiment: encoding assay; P2 F
[44] = target: M44-modified Y NTAA target peptides (M44-Y-P2-peptide); experiment: encoding assay; P2 F
[45] = target: M44-modified V NTAA target peptides; experiment: encoding assay; P2 F
[46] = target: M44-modified H NTAA target peptides; experiment: encoding assay; P2 F
[47] = target: M44-modified S NTAA target peptides; experiment: encoding assay; P2 F
[48] = target: M44-modified L NTAA target peptides (M44-L-P2-peptide); experiment: encoding assay; P2 F
[49] = target: M44-modified G NTAA target peptides (M44-G-P2-peptide); experiment: encoding assay; P2 F
[50] = target: M44-modified N NTAA target peptides; experiment: encoding assay; P2 F
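Also: fraction of recording tags encoded.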

B1: engineered M44-A binder (SEQ ID NO: 42) (designed binder, not shown: small tags and cut ends; large carriers)
chain: QVSVQPNFQQDKFLGRWFVAGLASNSSWDREKVAALSGAKMVVAPATDGGLNVTRTMLRKNQCETYTGLLQPAGSLGSYSWRSPHPGSTGSESVVETDYDQYALVYGQGSKGPGEDLRAAALWSRTQTPRAELKEKFTAFSKAQGFTEDTIVFLPQTDKCMTEQ
encoding yield [1]: 0.02
encoding yield [2]: 0.18
encoding yield [3]: 0.03
encoding yield [4]: 0.02
encoding yield [5]: 0.04
encoding yield [6]: 0.21
encoding yield [7]: 0.03
encoding yield [8]: 0.03
encoding yield [9]: 0.12
encoding yield [10]: 0
encoding yield [11]: 0.02
encoding yield [12]: 0.05
encoding yield [13]: 0.03
encoding yield [14]: 0.06
encoding yield [15]: 0.03
encoding yield [16]: 0.03
encoding yield [17]: 0.11
encoding yield [18]: 0.03
encoding yield [19]: 0.03
encoding yield [20]: 0.01
encoding yield [21]: 0.04
encoding yield [22]: 0.04
encoding yield [23]: 0.02
encoding yield [24]: 0.02
encoding yield [25]: 0.04
encoding yield [26]: 0.06
encoding yield [27]: 0.03
encoding yield [28]: 0.02
encoding yield [29]: 0.03
encoding yield [30]: 0.03
encoding yield [31]: 0.04
encoding yield [32]: 0.03
encoding yield [33]: 0.02
encoding yield [34]: 0.04
encoding yield [35]: 0.07
encoding yield [36]: 0.03
encoding yield [37]: 0.09
encoding yield [38]: 0.03
encoding yield [39]: 0.03
encoding yield [40]: 0.25
encoding yield [41]: 0.02
encoding yield [42]: 0.03
encoding yield [43]: 0.31
encoding yield [44]: 0.05
encoding yield [45]: 0.13
encoding yield [46]: 0.04
encoding yield [47]: 0.18
encoding yield [48]: 0.05
encoding yield [49]: 0.1
encoding yield [50]: 0.03
